Our source for the reverse-splicing fitness values is the RNAGym collection of RNA variant scans (doi:10.1093/molbev/msab373).

Sequences and labels used below:
B1: Azoarcus group I ribozyme (parent)
chain: GUGCCUUGCGCCGGGAAACCACGCAAGGGAUGGUGUCAAAUUCGGCGAAACCUAAGCGCCCGCCCGGGCGUAUGGCAACGCCGAGCCAAGCUUCGGCGCCUGCGCCGAUGAAGGUGUAGAGACUAGACGGCACCCACCUAAGGCAAACGCUAUGGUGAAGGCAUAGUCCAGGGAGUGGCGAAAGUCACACAAACCGG

This data set covers variants of B1. Description: reverse-splicing fitness (ratio to wild type); higher = more active; in vitro selection; Mg2+ level not given. The gist of the method:
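An in vitro group I ribozyme library with randomized positions was T7-transcribed and gel-purified. In triplicate, 10 pmol RNA in EPPS pH 7.5 was reacted with 50 pmoles of a 30-nt RNA substrate for 1 h at 37 °C across several added MgCl2 levels (1–48 mM), then stopped with EDTA. Products were reverse transcribed from a substrate-complementary primer, PCR-amplified and sequenced (HiSeq 4000). Fitness is a variant's read proportion after selection over that before, normalised to wild type.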
As to GUGCCUUGCGCCGGGAAACCACGCAAGGGAUGGUGUCAAAUUCGGCGAAACCUAAGCGCCCGCCCGGGCGUAUGGCAACGCAGAGCCAAGCUUCGGCGCCUGCGCCGAUGCAGGUGUAGCGACUAGACGGCACCCACCUAAGGCCAACGAUAUGGUGAAGGCAUAGUCUAGGGAGAGGCGAAAGUCACACAAACCGG [C82A A111C A120C A145C C150A C169U U176A], the reverse-splicing fitness came to 0.0165. As for GUGCCUUGCGCCGGGAAACCACGCAAGGGAUGGUGUCAAAUUCGGCGAAACCUAAGCGCCCGCCCGGGCGUAUGGCAACGCAGAGCCAAGCUUCGGCGCCUGCGCCGAUGCAGGUGUAGCGACUAGACGGCACCCACCUAAGGCCAACGAUAUGGUGAAGGCAUAGUCUAGGGAGGGGCGAAAGUCACACAAACCGG [C82A A111C A120C A145C C150A C169U U176G], the reverse-splicing fitness is 0.00786. The same measure for GUGCCUUGCGCCGGGAAACCACGCAAGGGAUGGUGUCAAAUUCGGCGAAACCUAAGCGCCCGCCCGGGCGUAUGGCAACGCAGAGCCAAGCUUCGGCGCCUGCGCCGAUGCAGGUGUAGCGACUAGACGGCACCCACCUAAGGCCAACGAUAUGGUGAAGGCAUAGUCUAGGGAGCGGCGAAAGUCACACAAACCGG [C82A A111C A120C A145C C150A C169U U176C]: 0.0127; for GUGCCUUGCGCCGGGAAACCACGCAAGGGAUGGUGUCAAAUUCGGCGAAACCUAAGCGCCCGCCCGGGCGUAUGGCAACGCAGAGCCAAGCUUCGGCGCCUGCGCCGAUGCAGGUGUAGCGACUAGACGGCACCCACCUAAGGCCAACGAUAUGGUGAAGGCAUAGUCGAGGGAGUGGCGAAAGUCACACAAACCGG [C82A A111C A120C A145C C150A C169G]: 0.00813; for GUGCCUUGCGCCGGGAAACCACGCAAGGGAUGGUGUCAAAUUCGGCGAAACCUAAGCGCCCGCCCGGGCGUAUGGCAACGCAGAGCCAAGCUUCGGCGCCUGCGCCGAUGCAGGUGUAGCGACUAGACGGCACCCACCUAAGGCCAACGAUAUGGUGAAGGCAUAGUCAAGGGAGUGGCGAAAGUCACACAAACCGG [C82A A111C A120C A145C C150A C169A]: 0.00755.

GUGCCUUGCGCCGGGAAACCACGCAAGGGAUGGUGUCAAAUUCGGCGAAACCUAAGCGCCCGCCCGGGCGUAUGGCAACGCAGAGCCAAGCUUCGGCGCCUGCGCCGAUGCAGGUGUAGCGACUAGACGGCACCCACCUAAGGCCAACGAUAUGGUGAAGGCAUAGUCUAGGGAGUGGCGAAAGUCACACAAACCGG [C82A A111C A120C A145C C150A C169U]: the reverse-splicing fitness turned out to be 0.0105. As for GUGCCUUGCGCCGGGAAACCACGCAAGGGAUGGUGUCAAAUUCGGCGAAACCUAAGCGCCCGCCCGGGCGUAUGGCAACGCAGAGCCAAGCUUCGGCGCCUGCGCCGAUGCAGGUGUAGCGACUAGACGGCACCCACCUAAGGCCAACGAUAUGGUGAAGGCAUAGUCGAGGGAGGGGCGAAAGUCACACAAACCGG [C82A A111C A120C A145C C150A C169G U176G], the reverse-splicing fitness was 0.00757. Next, GUGCCUUGCGCCGGGAAACCACGCAAGGGAUGGUGUCAAAUUCGGCGAAACCUAAGCGCCCGCCCGGGCGUAUGGCAACGCAGAGCCAAGCUUCGGCGCCUGCGCCGAUGCAGGUGUAGCGACUAGACGGCACCCACCUAAGGCCAACGAUAUGGUGAAGGCAUAGUCGAGGGAGAGGCGAAAGUCACACAAACCGG [C82A A111C A120C A145C C150A C169G U176A]: 0.0296. In the case of GUGCCUUGCGCCGGGAAACCACGCAAGGGAUGGUGUCAAAUUCGGCGAAACCUAAGCGCCCGCCCGGGCGUAUGGCAACGCAGAGCCAAGCUUCGGCGCCUGCGCCGAUGCAGGUGUAGCGACUAGACGGCACCCACCUAAGGCCAACGAUAUGGUGAAGGCAUAGUCGAGGGAGCGGCGAAAGUCACACAAACCGG [C82A A111C A120C A145C C150A C169G U176C], the reverse-splicing fitness came to 0.024. The same measure for GUGCCUUGCGCCGGGAAACCACGCAAGGGAUGGUGUCAAAUUCGGCGAAACCUAAGCGCCCGCCCGGGCGUAUGGCAACGCAGAGCCAAGCUUCGGCGCCUGCGCCGAUGCAGGUGUAGCGACUAGACGGCACCCACCUAAGGCCAACGGUAUGGUGAAGGCAUAGUCCAGGGAGUGGCGAAAGUCACACAAACCGG [C82A A111C A120C A145C C150G]: 0.00873. The same measure for GUGCCUUGCGCCGGGAAACCACGCAAGGGAUGGUGUCAAAUUCGGCGAAACCUAAGCGCCCGCCCGGGCGUAUGGCAACGCAGAGCCAAGCUUCGGCGCCUGCGCCGAUGCAGGUGUAGCGACUAGACGGCACCCACCUAAGGCCAACGAUAUGGUGAAGGCAUAGUCCAGGGAGUGGCGAAAGUCACACAAACCGG [C82A A111C A120C A145C C150A]: 0.0107. Next, GUGCCUUGCGCCGGGAAACCACGCAAGGGAUGGUGUCAAAUUCGGCGAAACCUAAGCGCCCGCCCGGGCGUAUGGCAACGCAGAGCCAAGCUUCGGCGCCUGCGCCGAUGCAGGUGUAGCGACUAGACGGCACCCACCUAAGGCCAACGAUAUGGUGAAGGCAUAGUCCAGGGAGCGGCGAAAGUCACACAAACCGG [C82A A111C A120C A145C C150A U176C]: 0.011; GUGCCUUGCGCCGGGAAACCACGCAAGGGAUGGUGUCAAAUUCGGCGAAACCUAAGCGCCCGCCCGGGCGUAUGGCAACGCAGAGCCAAGCUUCGGCGCCUGCGCCGAUGCAGGUGUAGCGACUAGACGGCACCCACCUAAGGCCAACGAUAUGGUGAAGGCAUAGUCCAGGGAGAGGCGAAAGUCACACAAACCGG [C82A A111C A120C A145C C150A U176A]: 0.0106. As to GUGCCUUGCGCCGGGAAACCACGCAAGGGAUGGUGUCAAAUUCGGCGAAACCUAAGCGCCCGCCCGGGCGUAUGGCAACGCAGAGCCAAGCUUCGGCGCCUGCGCCGAUGCAGGUGUAGCGACUAGACGGCACCCACCUAAGGCCAACGAUAUGGUGAAGGCAUAGUCCAGGGAGGGGCGAAAGUCACACAAACCGG [C82A A111C A120C A145C C150A U176G], the reverse-splicing fitness came out at 0.00581. The same measure for GUGCCUUGCGCCGGGAAACCACGCAAGGGAUGGUGUCAAAUUCGGCGAAACCUAAGCGCCCGCCCGGGCGUAUGGCAACGCAGAGCCAAGCUUCGGCGCCUGCGCCGAUGCAGGUGUAGCGACUAGACGGCACCCACCUAAGGCCAACGGUAUGGUGAAGGCAUAGUCGAGGGAGCGGCGAAAGUCACACAAACCGG [C82A A111C A120C A145C C150G C169G U176C]: 0.0101.
